Test results: US20220009987A9, “HUMAN RESISTIN COMPOSITIONS AND METHODS OF TREATING TLR4-MEDIATED DISEASE AND INFECTION” (THE REGENTS OF THE UNIVERSITY OF CALIFORNIA, priority 2017, published 2022)
“Also recorded” adds a separate entry of the source.

Key:
[1] = tested on: C57BL/6 mice; test: LPS-induced endotoxic shock model with recombinant hRetn treatment; format: in vivo, mouse; conditions: for survival after LPS injection: 0.5 μg hRetn i.p. prior to LPS, vs PBS control
Description: Mice. Human resistin transgenic mice were generated on a mouse Retn−/− background as previously described in Park et al., 2011, “Inflammatory induction of human resistin causes insulin resistance in endotoxemic mice,” Diabetes 60(3):775-783, the entire content of which is herein incorporated by reference. Briefly, the human resistin gene, along with 21,300 bp upstream and 4,248 bp downstream of the human resistin start site were inserted through a bacterial artificial chromosome (BAC). Genome insertion of hRETN in the two transgenic mouse lines was determined by Dartmouse™, which sequences and analyzes thousands of SNPs throughout the mouse genome. For the endotoxic shock model, mice were injected i.p. with two doses of LPS (Sigma): 0.05 mg/kg LPS followed by 12 mg/kg LPS (females) or 20 mg/kg LPS (males) 12 hours later. Mice were monitored at least twice a day and euthanized according to humane endpoints. For treatment with recombinant resistin, C57BL/6 mice were injected i.p. with PBS or 0.5 μg hRetn (Peprotech). Nippostrongylus brasiliensis life cycle was maintained in Sprague-Dawley rats, as previously described in Jang et al., 2015, “Macrophage-derived human resistin is induced in multiple helminth infections and promotes inflammatory monocytes and increased parasite burden,” PLoS Pathog 11(1):e1004579, the entire content of which is herein incorporated by reference. Mice were anesthetized with isoflurane and injected subcutaneously with 500 L3 larvae. Serum collection was by retro-orbital bleeding and body temperature was measured by rectal thermometer (Braintree Scientific). All animals in the experiment were age-matched (6-8 week old), gender-matched and housed in a specific pathogen free facility.
Vascular Permeability Assay. Evan's blue dye was used to measure vascular permeability. Mice were anesthetized by isoflurane and 200 μL of 0.5% Evan's Blue dye in PBS was injected reto-orbitally. After 10 minutes, mice were euthanized by CO2 and perfused with 20 mL PBS. Tissue was excised, weighed and incubated with 500 μL N, N-dimethylformamide (Sigma) for 24 hours at 55° C. Extracted Evan's blue was measured at 610 nm according to a standard curve.
(§1) Binding Assay and Flow Cytometry. Single cell suspension of lung tissue was prepared and hRetn binding was measured as previously described in Jang et al., 2015, supra. Briefly, dissociated lung cells were incubated for 1 hour at 4° C. with 0.5 μg recombinant hResistin (Peprotech) or PBS, followed by 2× wash in FACS buffer, incubation with Fc block (5 μg/mL αCD16/32 and 10 μg/mL purified rat IgG1, 5 min at 4° C.). Cells were stained with biotinylated α-hRetn (Peprotech, 30 min at 4° C.) followed by detection with BV605-conjugated streptavidin (BD) and surface marker antibodies. To collect peritoneal exudate cells (PECs), the peritoneal cavity was washed and PECs recovered in 5 mL ice cold PBS. Surface marker antibodies were: F4/80 (clone A3-1), SiglecF (clone E50-2440), CD4 (clone RM4-5), Ly6C (HK1.4), CD11b (clone M1/70), CD11c (clone N418), Ly6G (clone 1A8), MHCII (clone M5/114.15.2) and CD3e (clone 145-2C11), CD115 (clone AFS98), purchased from Affymetrix, BD Biosciences or Biolegend. Cell populations were determined as follows: peritoneal macrophage (F4/80+CD11b+), neutrophils (Ly6G+CD11b+), eosinophils (SiglecF+CD11c−) and monocyte (Ly6C+CD11b+), alveolar macrophages (F4/80+CD11c+). For flow cytometric analysis, all samples were run on the BD LSRII and analyzed on FlowJo (v10).
Cytokine Quantification. Sandwich ELISAs were performed using capture and biotinylated antibodies for human resistin (Peprotech), IL-10 and TNFα (BD Biosciences) according to manufacturer's instructions. Detection was performed with streptavidin-peroxidase (Jackson ImmunoResearch) and TMB peroxidase substrate (BD Biosciences), followed by addition of 2N H2SO4. Optical density (OD) was captured at 450 nm. Samples were compared to serial-fold dilution of recombinant protein. […]

[2] = tested on: TLR4; test: hRetn cellular binding assay on dissociated lung cells from Nb-infected Tlr4+/+ or Tlr4−/− mice; format: cell-based, mouse
Procedure: as §1

[3] = target: T1, TLR4 (Mus musculus, UniProt Q9QUK6); test: as above; format: cell-based; conditions: Ly6C+CD11b+ lung cells, Nb-infected mice
T1 construct: from tissue; host or cells: dissociated lung cells (monocytes, alveolar macrophages, neutrophils) of day 7 Nb-infected mice
T1 sequence (Q9QUK6 26-835): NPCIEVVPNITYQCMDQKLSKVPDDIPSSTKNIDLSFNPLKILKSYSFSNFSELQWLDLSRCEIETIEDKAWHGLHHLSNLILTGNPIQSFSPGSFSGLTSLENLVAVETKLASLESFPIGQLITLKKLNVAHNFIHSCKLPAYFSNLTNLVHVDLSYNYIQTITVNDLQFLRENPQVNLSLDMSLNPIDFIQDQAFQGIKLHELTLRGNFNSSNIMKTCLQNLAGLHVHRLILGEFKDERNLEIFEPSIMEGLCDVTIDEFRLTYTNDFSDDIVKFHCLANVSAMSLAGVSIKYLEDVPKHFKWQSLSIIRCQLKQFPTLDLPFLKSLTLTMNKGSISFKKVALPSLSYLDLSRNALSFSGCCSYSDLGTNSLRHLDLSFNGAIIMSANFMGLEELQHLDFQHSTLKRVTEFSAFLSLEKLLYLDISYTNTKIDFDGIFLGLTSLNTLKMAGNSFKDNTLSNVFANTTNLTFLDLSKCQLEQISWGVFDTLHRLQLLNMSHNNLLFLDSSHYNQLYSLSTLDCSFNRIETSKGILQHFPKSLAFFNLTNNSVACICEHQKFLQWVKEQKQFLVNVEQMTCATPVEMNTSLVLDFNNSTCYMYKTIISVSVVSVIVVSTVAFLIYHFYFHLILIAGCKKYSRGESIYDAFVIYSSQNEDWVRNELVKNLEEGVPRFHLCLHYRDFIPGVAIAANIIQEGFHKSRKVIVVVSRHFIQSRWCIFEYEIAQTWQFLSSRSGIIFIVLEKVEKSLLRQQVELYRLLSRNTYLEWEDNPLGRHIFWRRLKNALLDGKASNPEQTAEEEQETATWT
Procedure: as §1

[4] = peritoneal exudate cells, flow cytometry

B1: hRetn: human resistin protein (hRetn) having an amino acid sequence of SEQ ID NO: 1; recombinant, E. coli-derived or 293T cell-derived (protein, listed as Homo sapiens)
chain: MKALCLLLLPVLGLLVSSKTLCSMEEAINERIQEVAGSLIFRAISSIGLECQSVTSRGDLATCPRGFAVTGCTCGSACGSWDVRAETTCHCQCAGMDWTGARCCRVQP
[1]; listed as recombinant hRetn
  survival after LPS injection: protected C57BL/6 mice against LPS-induced mortality; also recorded: resistant to LPS-induced mortality
[1]; listed as recombinant hRetn protein
  survival after LPS injection: protected against an otherwise lethal dose of LPS
[1]; 6 hours after LPS
  IFNγ level: significant reduction
  IL-6 level: significant reduction
  IL-10 expression: no change
  TNFα level: significant reduction
  lung vascular permeability (Evan's blue dye): significantly reduced LPS-induced vascular permeability
  rectal body temperature (LPS-induced temperature drop): modest protection from the LPS-induced temperature drop
[1]; [4]
  LPS-induced neutrophils in the peritoneal cavity: significantly reduced LPS-induced neutrophils in the peritoneal cavity
  monocytes in the peritoneal cavity: increased monocytes
[2]; F4/80+CD11c+ lung cells, Tlr4+/+ vs Tlr4−/−
  hRetn binding to alveolar macrophages: TLR4-dependent binding
[2]; Ly6C+CD11b+ lung cells, Nb-infected mice
  hRetn binding to Tlr4−/− monocytes: significantly abrogated
[2]; Ly6G+CD11b+ lung cells, Tlr4−/−
  hRetn binding to neutrophils in the absence of TLR4: not noticeably affected
[2]; lung cells, Nb-infected mice
  frequency of hRetn-bound cells in monocytes: 15%
  frequency of hRetn-bound cells in neutrophils: 8%
[3]
  hRetn binding to Tlr4+/+ monocytes: able to bind hRetn
